{"source": "paper PMC9829383", "target": "Ecad ectodomain K14E mutant", "experiment": "single-molecule AFM dynamic force spectroscopy", "data": [{"substance": "Ecad ectodomain K14E mutant (domain or fragment)", "values": [{"measurement": "koff", "result": 0.78, "unit": "s⁻¹"}]}]}
